Test results from patent publication US12269859B2, “Synthetic immune receptors and methods of use thereof” (Angeles Therapeutics, Inc., priority 2016, dated 2025).
Numbering of substitutions follows the chain as printed.

Test system: target antigen-expressing cell line
Experiment: Jurkat NFAT-GFP assay, coculture with target cell lines expressing the respective target antigen (summary Table 10A)
Type: cell-based, human
Design: key: The signs +/−, +, 2+ etc. after the name of the cell lines indicate the relative degree of positivity on the Jurkat-NFAT-GFP assay as measured by the % GFP positive cells; +: relative degree of positivity on the Jurkat-NFAT-GFP assay as measured by the % GFP positive cells; 2+: relative degree of positivity on the Jurkat-NFAT-GFP assay as measured by the % GFP positive cells
Details: relative % GFP positive cells; for NFAT-GFP ASSAY Positive Cell lines: L363: SIR-expressing Jurkat-NFAT-GFP cells cocultured with L363; for NFAT-GFP ASSAY Positive Cell lines: U266: SIR-expressing Jurkat-NFAT-GFP cells cocultured with U266; for NFAT-GFP ASSAY Positive Cell lines: RAJI: SIR-expressing Jurkat-NFAT-GFP cells cocultured with RAJI; for NFAT-GFP ASSAY Positive Cell lines: Bv173: SIR-expressing Jurkat-NFAT-GFP cells cocultured with Bv173
Procedure, shortened: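 Jurkat cells carrying an NFAT-driven GFP reporter and lentivirally expressing a SIR were cocultured with antigen-bearing target cells (E:T ~1:2) for about 4–18 h. GFP induction read by flow cytometry as % GFP+ cells, scored positive and graded (+/−, +, 2+) against parental Jurkat-NFAT-GFP cells.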

B1: 031517-T06 (protein)
chain: MALPVTALLLPLALLLHAARPLEGKPIPNPLLGLDSTGSGEDLKNVFPPEVAVFEPSKAEIAHTQKATLVCLATGFYPDHVELSWWVNGKEVHSGVCTDPQPLKEQPALNDSRYCLSSRLRVSATFWQNPRNHFRCQVQFYGLSENDEWTQDRAKPVTQIVSAEAWGRADCGITSASYHQGVLSATILYEILLGKATLYAVLVSALVLMAMVKRKDSRGRAKRSGSGATNFSLLKQAGDVEENPGPTSMALPVTALLLPLALLLHAARPDIVLTQSPATLSLSPGDRATLSCRASESVTILGSHLIYWYQQKPGQAPRLLIQLASNVQTGIPARFSGSGSRTDFTLTISSLEPEDFAVYYCLQSRTIPRTFGQGTKLEIKRGGGGSGGGGSGGGGSQVQLVQSGSELKKPGESVKISCKASGYTFTHYSMNWVRQAPGQGLEWMGRINTETGEPLYADDFKGRFVFSLDTSASTAYLQISSLKAEDTAVYYCSNDYLYSLDYWGQGTLVTVSSTREQKLISEEDGSGIQNPDPAVYQLRDSKSSDKSVCLFTDFDSQTNVSQSKDSDVYITDKCVLDMRSMDFKSNSAVAWSNKSDFACANAFNNSIIPEDTFFPSSDVPCDVKLVEKSFETDTNLNFQNLSVIGFRILLLKVAGFNLLMTLRLWSSRAKRSGSGVKQTLNFDLLKLAGDVESNPGPSRGHMTEYKPTVRLATRDDVPRAVRTLAAAFADYPATRHTVDPDRHIERVTELQELFLTRVGLDIGKVWVADDGAAVAVWTTPESVEAGAVFAEIGPRMAELSGSRLAAQQQMEGLLAPHRPKEPAWFLATVGVSPDHQGKGLGSAVVLPGVEAAERAGVPAFLETSAPRNLPFYERLGFTVTADVEVPEGPRTWCMTRKPGA
NFAT-GFP ASSAY Positive Cell lines: L363: L363 (+/−), U266
NFAT-GFP ASSAY Positive Cell lines: U266: (+/−)

B2: 110116-G04 (protein)
chain: MALPVTALLLPLALLLHAARPLEQKLISEEDLGSGDRPDPAVYQLRDSKSSDKSVCLFTDFDSQTNVSQSKDSDVYITDKCVLDMRSMDFKSNSAVAWSNKSDFACANAFNNSIIPEDTFFPSPESSCDVKLVEKSFETDTNLNFQNLSVIGFRILLLKVAGFNLLMTLRLWSSSSRAKRSGSGVKQTLNFDLLKLAGDVESNPGPTSTMALPVTALLLPLALLLHAARPDIVMTQTPLTLSVTIGQPASISCKSSQSLLDSDGKTYLNWLLQRPGQSPERLIYLVSKLDSGVPDRFTGSGSGTDFTLKISRVEAEDLGVYCCWQGTHFPYTFGGGTKVEIKGGGGGSGGGGSGGGGSQVQLQQPGAELVRPGASVKLSCKASGYTFTSYWMNWVKQRPGQGLEWIGMIDPSDSETHYNHIFKDKATLTVDKSSSTAYLQLSSLTSEDSAVYYCARNLYLWGQGTSVTVSSTRGKPIPNPLLGLDSTGSGEDLKNVFPPEVAVFEPSEAEISHTQKATLVCLATGFYPDHVELSWWVNGKEVHSGVCTDPQPLKEQPALNDSRYCLSSRLRVSATFWQNPRNHFRCQVQFYGLSENDEWTQDRAKPVTQIVSAEAWGRADCGFTSESYQQGVLSATILYEILLGKATLYAVLVSALVLMAMVKRKDSRGRAKRSGSGATNFSLLKQAGDVEENPGPSRGHMTEYKPTVRLATRDDVPRAVRTLAAAFADYPATRHTVDPDRHIERVTELQELFLTRVGLDIGKVWVADDGAAVAVWTTPESVEAGAVFAEIGPRMAELSGSRLAAQQQMEGLLAPHRPKEPAWFLATVGVSPDHQGKGLGSAVVLPGVEAAERAGVPAFLETSAPRNLPFYERLGFTVTADVEVPEGPRTWCMTRKPGA
modifications: Synthetic Immune Receptor (SIR)
NFAT-GFP ASSAY Positive Cell lines: RAJI: RAJI (+/−)

B3: 031517-S02 (protein)
chain: MALPVTALLLPLALLLHAARPLEGKPIPNPLLGLDSTGSGEDLKNVFPPEVAVFEPSKAEIAHTQKATLVCLATGFYPDHVELSWWVNGKEVHSGVCTDPQPLKEQPALNDSRYCLSSRLRVSATFWQNPRNHFRCQVQFYGLSENDEWTQDRAKPVTQIVSAEAWGRADCGITSASYHQGVLSATILYEILLGKATLYAVLVSALVLMAMVKRKDSRGRAKRSGSGATNFSLLKQAGDVEENPGPTSMALPVTALLLPLALLLHAARPDIVLTQSPASLAVSLGERATINCRASESVSVIGAHLIHWYQQKPGQPPKLLIYLASNLETGVPARFSGSGSGTDFTLTISSLQAEDAAIYYCLQSRIFPRTFGQGTKLEIKGGGGSGGGGSGGGGSQVQLVQSGSELKKPGESVKISCKASGYTFTDYSINWVKQAPGQGLKWMGWINTETREPAYAYDFRGRFVFSLDTSASTAYLQISSLKAEDTAVYFCALDYSYAMDYWGQGTLVTVSSTREQKLISEEDGSGIQNPDPAVYQLRDSKSSDKSVCLFTDFDSQTNVSQSKDSDVYITDKCVLDMRSMDFKSNSAVAWSNKSDFACANAFNNSIIPEDTFFPSSDVPCDVKLVEKSFETDTNLNFQNLSVIGFRILLLKVAGFNLLMTLRLWSSRAKRSGSGVKQTLNFDLLKLAGDVESNPGPSRGHMTEYKPTVRLATRDDVPRAVRTLAAAFADYPATRHTVDPDRHIERVTELQELFLTRVGLDIGKVWVADDGAAVAVWTTPESVEAGAVFAEIGPRMAELSGSRLAAQQQMEGLLAPHRPKEPAWFLATVGVSPDHQGKGLGSAVVLPGVEAAERAGVPAFLETSAPRNLPFYERLGFTVTADVEVPEGPRTWCMTRKPGA
NFAT-GFP ASSAY Positive Cell lines: L363: L363 (+/−), U266
NFAT-GFP ASSAY Positive Cell lines: U266: (+/−)

B4: 090116-G02 (protein)
chain: MALPVTALLLPLALLLHAARPLEGKPIPNPLLGLDSTGSGEDLKNVFPPEVAVFEPSKAEIAHTQKATLVCLATGFYPDHVELSWWVNGKEVHSGVCTDPQPLKEQPALNDSRYCLSSRLRVSATFWQNPRNHFRCQVQFYGLSENDEWTQDRAKPVTQIVSAEAWGRADCGITSASYHQGVLSATILYEILLGKATLYAVLVSALVLMAMVKRKDSRGRAKRSGSGATNFSLLKQAGDVEENPGPTSTMALPVTALLLPLALLLHAARPDIVMTQTPLTLSVTIGQPASISCKSSQSLLDSDGKTYLNWLLQRPGQSPERLIYLVSKLDSGVPDRFTGSGSGTDFTLKISRVEAEDLGVYCCWQGTHFPYTFGGGTKVEIKGGGGGSGGGGSGGGGSQVQLQQPGAELVRPGASVKLSCKASGYTFTSYWMNWVKQRPGQGLEWIGMIDPSDSETHYNHIFKDKATLTVDKSSSTAYLQLSSLTSEDSAVYYCARNLYLWGQGTSVTVSSTREQKLISEEDGSGIQNPDPAVYQLRDSKSSDKSVCLFTDFDSQTNVSQSKDSDVYITDKCVLDMRSMDFKSNSAVAWSNKSDFACANAFNNSIIPEDTFFPSSDVPCDVKLVEKSFETDTNLNFQNLSVIGFRILLLKVAGFNLLMTLRLWSSRAKRSGSGVKQTLNFDLLKLAGDVESNPGPSRGHMTEYKPTVRLATRDDVPRAVRTLAAAFADYPATRHTVDPDRHIERVTELQELFLTRVGLDIGKVWVADDGAAVAVWTTPESVEAGAVFAEIGPRMAELSGSRLAAQQQMEGLLAPHRPKEPAWFLATVGVSPDHQGKGLGSAVVLPGVEAAERAGVPAFLETSAPRNLPFYERLGFTVTADVEVPEGPRTWCMTRKPGA
modifications: Synthetic Immune Receptor (SIR)
NFAT-GFP ASSAY Positive Cell lines: RAJI: RAJI (+)

B5: 111215-J02 (protein)
chain: MDWIWRILFLVGAATGAHSFEVQLVESGGGSVQAGGSLRLSCTTSGRALNMYVMGWFRQAPGNEREFVAATSSSGGSTSYPDSVKGRFTISRDNAKNTVYLQMNSLKPEDTAAYRCAASPYVSTPTMNILEEYRYWGLGTQVTVSSLEGKPIPNPLLGLDSTGSGEDLKNVFPPEVAVFEPSEAEISHTQKATLVCLATGFYPDHVELSWWVNGKEVHSGVCTDPQPLKEQPALNDSRYCLSSRLRVSATFWQNPRNHFRCQVQFYGLSENDEWTQDRAKPVTQIVSAEAWGRADCGFTSESYQQGVLSATILYEILLGKATLYAVLVSALVLMAMVKRKDSRGRAKRSGSGATNFSLLKQAGDVEENPGPTSMDWIWRILFLVGAATGAHSFEVQLVESGGGLVQAGGSLRLSCAASGSIFSGNVMGWYRRQAPGKEREWVAAIASGGSIYYRDSVKGRFTISRDNAKNTVYLQMNSLKPEDTAVYYCNSHPPTLPYWGLGTQVTVSSTREQKLISEEDGSGIQNPDPAVYQLRDSKSSDKSVCLFTDFDSQTNVSQSKDSDVYITDKCVLDMRSMDFKSNSAVAWSNKSDFACANAFNNSIIPEDTFFPSPESSCDVKLVEKSFETDTNLNFQNLSVIGFRILLLKVAGFNLLMTLRLWSSRAKRSGSGVKQTLNFDLLKLAGDVESNPGPSRGHMTEYKPTVRLATRDDVPRAVRTLAAAFADYPATRHTVDPDRHIERVTELQELFLTRVGLDIGKVWVADDGAAVAVWTTPESVEAGAVFAEIGPRMAELSGSRLAAQQQMEGLLAPHRPKEPAWFLATVGVSPDHQGKGLGSAVVLPGVEAAERAGVPAFLETSAPRNLPFYERLGFTVTADVEVPEGPRTWCMTRKPGA
modifications: Synthetic Immune Receptor (SIR)
NFAT-GFP ASSAY Positive Cell lines: Bv173: (+)
NFAT-GFP ASSAY Positive Cell lines: MOLM13 (SIR-expressing Jurkat-NFAT-GFP cells cocultured with MOLM13): MOLM13 (+), Bv173

B6: 111215-K06 (protein)
chain: B5 chain with E183K, S187A, F298I, E301A, Q304H, P613S, E614D, S615V, S616P
modifications: Synthetic Immune Receptor (SIR)
NFAT-GFP ASSAY Positive Cell lines: Bv173: Bv173 (+), THP1
NFAT-GFP ASSAY Positive Cell lines: THP1 (SIR-expressing Jurkat-NFAT-GFP cells cocultured with THP1): (+),
